Earlier results, collected in patent US20150072391A1, “ETHANOL PRODUCTION IN ENGINEERED YEAST” (Massachusetts Institute of Technology, priority 2013, published 2015).

Conditions: low viscosity CMC; cited from earlier work

B1: Cellulamonas fimi Eng (cenA): endoglucanase expressed in S. cerevisiae (protein, UniProt P07984 32-449, looked up)
Endoglucanase A: APGCRVDYAVTNQWPGGFGANVTITNLGDPVSSWKLDWTYTAGQRIQQLWNGTASTNGGQVSVTSLPWNGSIPTGGTASFGFNGSWAGSNPTPASFSLNGTTCTGTVPTTSPTPTPTPTTPTPTPTPTPTPTPTVTPQPTSGFYVDPTTQGYRAWQAASGTDKALLEKIALTPQAYWVGNWADASHAQAEVADYTGRAVAAGKTPMLVVYAIPGRDCGSHSGGGVSESEYARWVDTVAQGIKGNPIVILEPDALAQLGDCSGQGDRVGFLKYAAKSLTLKGARVYIDAGHAKWLSVDTPVNRLNQVGFEYAVGFALNTSNYQTTADSKAYGQQISQRLGGKKFVIDTSRNGNGSNGEWCNPRGRALGERPVAVNDGSGLDALLWVKLPGESDGACNGGPAAGQWWQEIALEMARNARW
activity measured per L culture broth: 293 U/L (low viscosity
